B1: mDkk3 BSAP WT (dsDNA)
DNA 1: CATCTGGGGGCGGGCAGAGCAGCGGGGCGGGGCGGGACGGGCAAGAGGGG
DNA 2: CCCCTCTTGCCCGTCCCGCCCCGCCCCGCTGCTCTGCCCGCCCCCAGATG
B2: mDkk3 5aCON OPT (dsDNA)
DNA 1: GGAGGAAGCTATGCTCAGTGAGATGTTCATTGAGGTGGAGGAG
DNA 2: CTCCTCCACCTCAATGAACATCTCACTGAGCATAGCTTCCTCC
B3: mDkk3 5aCON MUT (dsDNA)
DNA 1: GGAGGAAGCTACCCTGTATCCGATTTTTCGAGAGGTGGAGGAG
DNA 2: CTCCTCCACCTCTCGAAAAATCGGATACAGGGTAGCTTCCTCC

Key:
Conditions in all cases: protein: recombinant; label: 32P 5' end; blunt
[1] = target: T1, GST-Pax6 paired domain (PD) (UniProt P63015 4-130); test: EMSA; EMSA: 2 ug protein, 20000 cpm 32P probe, 1 ug poly(dI-dC), 5% TBE polyacrylamide gel; buffer, salt, pH and temperature not given (as in ref. 35)
[2] = target: GST-Pax6(5a) paired domain (PD5a) (UniProt P63015-2 4-144); test: as above
[3] = target: T1, GST-Pax6 paired domain (PD); test: EMSA; stronger than WT; EMSA: 2 ug protein, 20000 cpm 32P probe, 1 ug poly(dI-dC), 5% TBE polyacrylamide gel; buffer, salt, pH and temperature not given (as in ref. 35)

T1 sequence (P63015 4-130): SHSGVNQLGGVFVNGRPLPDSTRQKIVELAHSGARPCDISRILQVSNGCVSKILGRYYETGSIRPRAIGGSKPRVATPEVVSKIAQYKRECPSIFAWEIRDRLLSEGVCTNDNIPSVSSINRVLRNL
Sequence of GST-Pax6(5a) paired domain (PD5a) (P63015 other isoform, or with tags, fused parts or gaps): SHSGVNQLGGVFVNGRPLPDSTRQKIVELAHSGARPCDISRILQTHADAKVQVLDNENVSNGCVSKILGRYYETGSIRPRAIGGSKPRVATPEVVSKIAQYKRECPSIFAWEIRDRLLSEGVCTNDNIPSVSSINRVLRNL

Binder	binding result [1]	binding result [2]	binding result [3]
B1	binds	no binding	–
B2	–	–	binds
B3	–	–	binds

Source: PMC4100929, “Pax6 Regulates the Expression of Dkk3 in Murine and Human Cell Lines, and Altered Responses to Wnt Signaling Are Shown in FlpIn-3T3 Cells Stably Expressing Either the Pax6 or the Pax6(5a) Isoform”
